The values that follow come from the Immune Epitope Database (IEDB).

pIC50, pKd: −log10 of the molar value.

Assay [1] deals with HLA-A*02:01. The experiment in a line: IEDB peptide-MHC binding, purified MHC/competitive/radioactivity; filed as Kd, often an IC50 or EC50 that approximates it; ≥ and ≤ were set here for values at or beyond the usual limits of such assays.
In assay [2] the target is HLA-A*03:01. The experiment in a line: IEDB peptide-MHC binding, purified MHC/competitive/fluorescence; ≥ and ≤ were set here for values at or beyond the usual limits of such assays.
The target in assay [3] is HLA-A*02:01. Described as above.
Assay [4] concerns the target HLA-A*11:01. Described as above.
Assay [5] addresses HLA-A*03:01. The experiment in a line: IEDB peptide-MHC binding, purified MHC/competitive/fluorescence; filed as Kd, often an IC50 or EC50 that approximates it; ≥ and ≤ were set here for values at or beyond the usual limits of such assays.
The target of another assay is HLA-A*26:01. The description is as above.
Another assay has as its target HLA-B*18:01. The assay is described as above.
The target in the next assay is HLA-B*15:01. The description is as above.
Assay [6] deals with HLA-A*02:01. The description is as above.
For a further assay, the target named is HLA-B*57:01. The description is as above.
The target of the next assay is HLA-B*46:01. Described as above.
For a further assay, the target named is HLA-B*39:01. The description is as above.
Another assay addresses HLA-B*27:03. Described as above.
The next assay addresses HLA-A*33:01. Briefly: IEDB peptide-MHC binding, purified MHC/competitive/radioactivity; filed as Kd, often an IC50 or EC50 that approximates it; ≥ and ≤ were set here for values at or beyond the usual limits of such assays.
The target in the next assay is HLA-A*68:01. The assay is described as above.
In a further assay the target is HLA-A*31:01. The description is as above.
For the next assay, the target named is HLA-B*40:02. Described as above. To be noted: source organism: Hepatitis C virus (isolate 1).
The target in a further assay is HLA-B*44:02. The description is as above. To be noted: source organism: Hepatitis C virus (isolate 1).
Assay [7] concerns the target HLA-A*03:01. The description is as above.
A further assay deals with HLA-A*02:02. The assay is described as above.
The next assay addresses HLA-B*08:01. Described as above. To be noted: source organism: Hepatitis C virus (isolate 1).
A further assay has as its target HLA-B*53:01. Described as above.
For another assay, the target named is HLA-B*40:01. Described as above. To be noted: source organism: Hepatitis C virus (isolate 1).
Another assay has as its target HLA-A*02:06. The description is as above.
Assay [8] deals with HLA-A*11:01. The description is as above.
For another assay, the target named is HLA-A*68:02. Described as above.
Assay [9] addresses HLA-A*01:01. The description is as above. To be noted: source organism: Hepatitis C virus (isolate 1).
In a further assay the target is HLA-A*02:03. The description is as above.
The next assay has as its target HLA-B*44:03. The assay is described as above. To be noted: source organism: Hepatitis C virus (isolate 1).
The next assay deals with HLA-B*54:01. Described as above.
A further assay concerns the target HLA-A*30:01. The description is as above. To be noted: source organism: Vaccinia virus WR.
A further assay has as its target HLA-B*35:01. The description is as above. To be noted: source organism: Vaccinia virus WR.
In another assay the target is HLA-B*07:02. The description is as above. To be noted: source organism: Vaccinia virus WR.
For assay [10], the target named is HLA-B*51:01. Described as above. To be noted: source organism: Vaccinia virus WR.
Assay [11] deals with HLA-A*01:01. The experiment in a line: IEDB peptide-MHC binding, purified MHC/competitive/fluorescence; filed as Kd, often an IC50 or EC50 that approximates it; ≥ and ≤ were set here for values at or beyond the usual limits of such assays. To be noted: source organism: Influenza A virus (A/equine/California/8560/2002(H3N8)).
For assay [12], the target named is HLA-B*51:01. The description is as above. To be noted: source organism: Helicobacter pylori 26695.
Setting [13] is: source organism: Lassa virus Josiah.
[14] abbreviates: source organism: Zaire ebolavirus.
Where [15] appears, read: source organism: Vaccinia virus Copenhagen.
The mark [16] stands for this setting: source organism: Camelpox virus CMS.
Where [17] appears, read: source organism: Vaccinia virus WR.
Setting [18] is: source organism: Hepatitis C virus (isolate 1).
Where [19] appears, read: source organism: Vaccinia virus.
Setting [20] is: source organism: HIV-1 M:B_ARV2/SF2.
[21] abbreviates: source organism: Triticum aestivum.
Setting [22] is: source organism: Sudan ebolavirus.
The mark [23] stands for this setting: source organism: Helicobacter pylori 26695.

In the case of FLLLCGRSCT, the pKd (in general, −log10 of the Kd, conventionally taken in molar units) in the assay with HLA-A*02:01 [1] (setting [13]) is at most 4.60.

Consider SIFLHLVKI, for which the pKd with HLA-A*02:01 [1] (setting [13]) is 6.41.

On to VLYYHMMKD, for which the values for the pIC50 with HLA-A*03:01 [2] (setting [14]), with HLA-A*02:01 [3] (setting [14]) and with HLA-A*11:01 [4] (setting [14]) were 4.58, 4.32 and 4.90, respectively.

Take ANCSSISIK: the pIC50 – broadly, the negative decadic logarithm of the IC50, by convention in mol/L – was 4.37 with HLA-A*03:01 [2] (setting [15]) and 5.56 in the assay with HLA-A*11:01 [4] (setting [15]).

Consider LLSQRTRDI, for which the pKd with HLA-A*02:01 [1] (setting [13]) is 4.90.

For the sequence WVIDTLNGI, the pKd with HLA-A*03:01 [5] (setting [16]) was at most 4.70; with HLA-A*26:01 (setting [16]), at most 4.70; with HLA-B*18:01 (setting [16]) it was at most 4.70; with HLA-B*15:01 (setting [16]) it was at most 4.70; with HLA-A*02:01 [6] (setting [16]), 8.13; in the assay with HLA-B*57:01 (setting [16]), at most 4.70. Moreover, the pKd with HLA-B*46:01 (setting [16]), with HLA-B*39:01 (setting [16]) and with HLA-B*27:03 (setting [16]) was at most 4.70 throughout.

With LSVETITEK, the pIC50 in the assay with HLA-A*03:01 [2] (setting [15]) was at most 4.00; in the assay with HLA-A*02:01 [3] (setting [15]) it was at most 3.87; with HLA-A*11:01 [4] (setting [15]) it was 5.18. Moreover, the pKd in the assay with HLA-A*33:01 (setting [17]) was 5.82; in the assay with HLA-A*68:01 (setting [17]), 6.58; with HLA-A*31:01 (setting [17]), 5.53.

For the sequence HPNIEEVAL, the pKd in the assay with HLA-B*40:02 is at most 4.11; in the assay with HLA-A*33:01 (setting [18]), at most 4.11; with HLA-B*44:02, at most 4.11; with HLA-A*68:01 (setting [18]), at most 4.24; with HLA-A*03:01 [7] (setting [18]), at most 4.11; in the assay with HLA-A*02:02 (setting [18]), 5.40. Also, the pKd is at most 4.44 with HLA-B*08:01; 6.79 with HLA-B*53:01 (setting [18]); at most 4.15 in the assay with HLA-A*02:01 [1] (setting [18]); at most 4.11 with HLA-A*31:01 (setting [18]); at most 4.12 with HLA-B*40:01; at most 4.17 with HLA-A*02:06 (setting [18]). Besides, the pKd with HLA-A*11:01 [8] (setting [18]) is at most 4.11; with HLA-A*68:02 (setting [18]), at most 4.16; with HLA-A*01:01 [9], 4.80; in the assay with HLA-A*02:03 (setting [18]) it was 4.76; with HLA-B*44:03, at most 4.32; in the assay with HLA-B*54:01 (setting [18]), 5.34.

For LEYKTLCDM, the results for the pIC50 with HLA-A*03:01 [2] (setting [19]) and with HLA-A*11:01 [4] (setting [19]) were at most 3.54 and 4.35, respectively.

Turning to DLNGAQIKL, the pKd is 5.58 with HLA-A*02:02 (source organism: Homo sapiens), at most 4.30 with HLA-A*02:01 [1] (source organism: Homo sapiens) and 5.53 in the assay with HLA-A*68:02 (source organism: Homo sapiens).

VIYQYMDDL: the pKd with HLA-A*02:02 (setting [20]) was 6.81; with HLA-A*02:01 [1] (setting [20]), 5.23; in the assay with HLA-A*02:06 (setting [20]), 5.11; in the assay with HLA-A*68:02 (setting [20]), at most 4.25; in the assay with HLA-A*02:03 (setting [20]) it was 5.32.

As for LQQSTYQLV, the negative-log Kd (pKd) in the assay with HLA-A*02:02 (setting [21]) was 6.36; with HLA-A*02:01 [1] (setting [21]), 7.04; in the assay with HLA-A*02:06 (setting [21]), 7.56; in the assay with HLA-A*68:02 (setting [21]), at most 4.25; with HLA-A*02:03 (setting [21]), 7.73.

Turning to MTIREFPRK, the pKd with HLA-A*33:01 (setting [17]) is 5.86; with HLA-A*30:01, 8.80; with HLA-B*35:01, at most 4.11; with HLA-A*68:01 (setting [17]), 8.21; with HLA-B*07:02, at most 4.11; in the assay with HLA-A*03:01 [7] (setting [17]), 8.20. In addition, the pKd is at most 4.11 with HLA-A*02:02 (setting [17]); at most 4.11 in the assay with HLA-B*51:01 [10]; at most 4.11 with HLA-B*53:01 (setting [17]); at most 4.11 in the assay with HLA-A*02:01 [1] (setting [17]); 7.00 with HLA-A*31:01 (setting [17]); at most 4.18 with HLA-A*02:06 (setting [17]). In addition, the pKd in the assay with HLA-A*11:01 [8] (setting [17]) is 8.41; in the assay with HLA-A*68:02 (setting [17]), 5.48; in the assay with HLA-A*02:03 (setting [17]) it was at most 4.11; with HLA-B*54:01 (setting [17]) it was at most 4.11.

Consider LRTFSILNR, for which the pIC50 with HLA-A*03:01 [2] (setting [14]) is at most 3.96; in the assay with HLA-A*02:01 [3] (setting [14]) it was at most 3.61; with HLA-A*11:01 [4] (setting [14]) it was 4.48.

For MTIASVPTSRY, the pKd in the assay with HLA-A*01:01 [11] is 5.69.

As for LGLRKRSRR, the pIC50 with HLA-A*03:01 [2] (setting [22]) is 5.17; in the assay with HLA-A*11:01 [4] (setting [22]) it was 4.18.

As to DLNLGNLN, the pKd in the assay with HLA-A*02:01 [1] (source organism: Hepatitis B virus subtype ayw) was at most 5.30.

Turning to GIVCYNEEV, the pKd was at most 4.70 with HLA-A*03:01 [5] (setting [23]); at most 4.70 with HLA-A*26:01 (setting [23]); at most 4.70 with HLA-B*18:01 (setting [23]); at most 4.70 in the assay with HLA-B*51:01 [12]; at most 4.70 in the assay with HLA-B*15:01 (setting [23]); 7.42 with HLA-A*02:01 [6] (setting [23]). Besides, the pKd with HLA-B*57:01 (setting [23]), with HLA-B*46:01 (setting [23]), with HLA-B*39:01 (setting [23]) and with HLA-B*27:03 (setting [23]) was at most 4.70 throughout.

For NRSTKGGQQ, the results for the pIC50 in the assay with HLA-A*03:01 [2] (setting [14]) and in the assay with HLA-A*11:01 [4] (setting [14]) were at most 3.54 and at most 3.85, respectively.

For the sequence HIPGDTLFK, the pIC50 is 5.18 with HLA-A*03:01 [2] (source organism: Variola virus) and 6.13 in the assay with HLA-A*11:01 [4] (source organism: Variola virus).

In the case of QIIHDFVDK, the pIC50 is at most 4.01 with HLA-A*03:01 [2] (setting [14]), at most 3.58 in the assay with HLA-A*02:01 [3] (setting [14]) and 5.20 with HLA-A*11:01 [4] (setting [14]).
